We go through 4 compounds from article PMC10384113, “Structural and Functional Characterization of Drosophila melanogaster α-Amylase” (Molecules, 2023).

For assay [1], the target named is T1, DMA (Drosophila melanogaster α-amylase) (Drosophila melanogaster, UniProt P08144).
T1 construct: gene Amy-p; mature enzyme of 476 residues in crystal; recombinant, amy-p in pET22b, E. coli BL21 (kinetics, crystals); glycogen-purified; no tag mentioned
Put plainly: residual activity on starch after inhibitor preincubation. Format: biochemical. To be noted: native DMA, Pichia-produced; inhibitor 1-50 µM, 20 mM HEPES pH 7.5, 20 mM NaCl, 1 mM CaCl2, 25 °C.

The target in assay [2] is Drosophila melanogaster α-amylase (Drosophila melanogaster) (UniProt P08144).
Drosophila melanogaster α-amylase (Drosophila melanogaster), sequence (P08144 other isoform, or with tags, fused parts or gaps): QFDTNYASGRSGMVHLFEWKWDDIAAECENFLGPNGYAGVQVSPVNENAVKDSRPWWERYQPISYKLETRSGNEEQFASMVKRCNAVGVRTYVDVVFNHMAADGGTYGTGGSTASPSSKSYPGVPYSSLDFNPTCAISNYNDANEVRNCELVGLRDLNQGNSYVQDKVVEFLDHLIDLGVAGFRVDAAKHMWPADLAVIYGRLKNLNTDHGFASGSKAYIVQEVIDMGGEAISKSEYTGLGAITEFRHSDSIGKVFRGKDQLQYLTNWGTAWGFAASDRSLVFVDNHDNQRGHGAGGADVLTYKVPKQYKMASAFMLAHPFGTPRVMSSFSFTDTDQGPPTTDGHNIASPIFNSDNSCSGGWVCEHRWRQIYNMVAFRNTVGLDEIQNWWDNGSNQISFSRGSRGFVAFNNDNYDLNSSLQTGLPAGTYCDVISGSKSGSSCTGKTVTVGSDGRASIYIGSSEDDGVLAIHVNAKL

T1 sequence (P08144 with tags, fused parts or gaps): as the sequence (P08144 other isoform, or with tags, fused parts or gaps) above

Take `C[C@H]1O[C@H](O[C@H]2[C@H](O)[C@@H](O)[C@@H](O[C@H]3[C@H](O)[C@@H](O)C(O)O[C@@H]3CO)O[C@@H]2CO)[C@H](O)[C@@H](O)[C@@H]1N[C@H]1C=C(CO)[C@@H](O)[C@H](O)[C@H]1O` (stereo partly shown) [acarbose]: in assay [1], the “residual activity (%)” value was “Residual activity of (a) native DMA after treatment with proteinaceous inhibitors and acarbose”.

On to “WI-1 (tetrameric form), wheat α-amylase inhibitor from Triticum aestivum seeds (complex)”, for which, in assay [2], the residual α-amylase activity of DMA after 20 min incubation with the inhibitor (1 to 50 µM) at 25 °C, pH 7.5; value at 10 μM WI-1 stood at 6%.

Compound “WI-3 (monomeric form), wheat α-amylase inhibitor from Triticum aestivum seeds (natural protein)” showed a residual α-amylase activity of DMA after 20 min incubation with the inhibitor (1 to 50 µM) at 25 °C, pH 7.5; value at 10 μM WI-3 in assay [2] of 0.8%.

In turn, “α-AI, α-amylase inhibitor from seeds of the common bean Phaseolus vulgaris (natural protein)” came in with a residual α-amylase activity of DMA after 20 min incubation with the inhibitor (1 to 50 µM) at 25 °C, pH 7.5; value at the highest concentration (50 μM) of α-AI in assay [2] of 38%.
